Measured values as given in PMC3985883 (Biochemistry, 2014).
Blank lines part the entries; values can stand above or below the molecule they belong to.

Experiments:
[1] = target: class Ia RNR small subunit (Escherichia coli) (UniProt P69924); conditions: cited from earlier work
[2] = target: class Ia RNR small subunit (Homo sapiens) (UniProt P31350); conditions: cited from earlier work
SEC = target: the molecule itself; experiment: SEC
[3] = target: T1, Bacillus subtilis class Ib ribonucleotide reductase NrdE (α subunit) (Bacillus subtilis, UniProt P50620 1-700); experiment: SEC
T1 sequence (looked up): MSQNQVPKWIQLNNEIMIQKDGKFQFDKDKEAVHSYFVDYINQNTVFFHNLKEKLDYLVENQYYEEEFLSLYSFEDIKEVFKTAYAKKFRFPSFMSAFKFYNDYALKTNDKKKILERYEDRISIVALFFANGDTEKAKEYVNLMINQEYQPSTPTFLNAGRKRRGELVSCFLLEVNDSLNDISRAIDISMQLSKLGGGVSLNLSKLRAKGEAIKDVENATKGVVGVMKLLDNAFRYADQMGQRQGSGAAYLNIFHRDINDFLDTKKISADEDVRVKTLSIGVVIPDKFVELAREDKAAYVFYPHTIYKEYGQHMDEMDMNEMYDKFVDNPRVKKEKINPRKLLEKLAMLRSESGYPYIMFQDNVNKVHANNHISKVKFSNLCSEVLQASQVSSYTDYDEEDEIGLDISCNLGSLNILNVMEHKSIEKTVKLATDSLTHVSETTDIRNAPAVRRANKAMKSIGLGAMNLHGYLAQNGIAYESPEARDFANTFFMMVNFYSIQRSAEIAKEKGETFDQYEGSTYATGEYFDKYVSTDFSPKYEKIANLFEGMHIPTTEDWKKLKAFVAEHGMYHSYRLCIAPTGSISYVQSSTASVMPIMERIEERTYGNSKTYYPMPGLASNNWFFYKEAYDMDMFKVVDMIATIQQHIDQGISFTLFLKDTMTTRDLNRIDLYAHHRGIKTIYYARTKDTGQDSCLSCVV

AUC = target: the molecule itself; experiment: AUC

Sequence of class Ia RNR small subunit (Escherichia coli) (P69924 2-376): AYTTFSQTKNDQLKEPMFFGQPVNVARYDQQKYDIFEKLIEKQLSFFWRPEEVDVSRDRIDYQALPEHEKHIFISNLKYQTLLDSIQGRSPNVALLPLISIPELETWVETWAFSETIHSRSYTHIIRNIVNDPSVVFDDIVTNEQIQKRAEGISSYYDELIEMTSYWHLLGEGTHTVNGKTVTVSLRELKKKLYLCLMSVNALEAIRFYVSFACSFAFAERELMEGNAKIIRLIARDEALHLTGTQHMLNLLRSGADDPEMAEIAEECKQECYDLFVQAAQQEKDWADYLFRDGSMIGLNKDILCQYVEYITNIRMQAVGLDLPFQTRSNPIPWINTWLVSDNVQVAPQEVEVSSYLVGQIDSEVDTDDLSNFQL
Sequence of class Ia RNR small subunit (Homo sapiens) (P31350 whole entry): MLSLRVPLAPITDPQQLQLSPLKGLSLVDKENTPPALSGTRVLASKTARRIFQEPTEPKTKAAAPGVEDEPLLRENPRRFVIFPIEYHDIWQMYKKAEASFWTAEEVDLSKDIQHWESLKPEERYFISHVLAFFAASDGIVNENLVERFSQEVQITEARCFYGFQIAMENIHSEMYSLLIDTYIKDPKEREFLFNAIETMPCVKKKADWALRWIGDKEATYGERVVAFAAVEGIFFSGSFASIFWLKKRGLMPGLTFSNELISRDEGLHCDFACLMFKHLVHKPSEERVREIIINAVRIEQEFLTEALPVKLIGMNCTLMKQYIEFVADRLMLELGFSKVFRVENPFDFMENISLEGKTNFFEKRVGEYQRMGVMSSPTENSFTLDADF

Molecule: class Ia RNR large subunit (from UniProt P00452)
Kd [1]: 200 nM

Molecule: class Ia RNR large subunit (from UniProt P23921)
Kd [2]: 200 nM

binding result [3]: binds
B1: Bacillus subtilis holo-Fe^III2-Y· NrdF (β subunit, diferric-tyrosyl radical cofactor) (enzyme, UniProt P50621 1-329, looked up)
chain: MTKIYDAANWSKHEDDFTQMFYNQNVKQFWLPEEIALNGDLLTWKYLGKNEQDTYMKVLAGLTLLDTEQGNTGMPIVAEHVDGHQRKAVLNFMAMMENAVHAKSYSNIFMTLAPTETINEVFEWVKQNKYLQKKAQMIVGLYKAIQKDDEISLFKAMVASVYLESFLFYSGFYYPLYFYGQGKLMQSGEIINLILRDEAIHGVYVGLLAQEIYNKQTEEKKAELREFAIDLLNQLYENELEYTEDLYDQVGLSHDVKKFIRYNANKALMNLGFDPYFEEEDINPIVLNGLNTKTKSHDFFSMKGNGYKKATVEPLKDDDFYFEDEKEQI
modifications: tyrosyl radical (about 1 Y· per β2); Fe^III2 cofactor (about 4 Fe per β2)
stoichiometry N (SEC): 2

binding result [3]: binds
B2: Bacillus subtilis holo-Mn^III2-Y· NrdF (β subunit, dimanganic-tyrosyl radical cofactor) (enzyme, UniProt P50621 1-329, looked up)
chain: MTKIYDAANWSKHEDDFTQMFYNQNVKQFWLPEEIALNGDLLTWKYLGKNEQDTYMKVLAGLTLLDTEQGNTGMPIVAEHVDGHQRKAVLNFMAMMENAVHAKSYSNIFMTLAPTETINEVFEWVKQNKYLQKKAQMIVGLYKAIQKDDEISLFKAMVASVYLESFLFYSGFYYPLYFYGQGKLMQSGEIINLILRDEAIHGVYVGLLAQEIYNKQTEEKKAELREFAIDLLNQLYENELEYTEDLYDQVGLSHDVKKFIRYNANKALMNLGFDPYFEEEDINPIVLNGLNTKTKSHDFFSMKGNGYKKATVEPLKDDDFYFEDEKEQI
modifications: tyrosyl radical (about 1 Y· per β2); Mn^III2 cofactor (about 4 Mn per β2)
stoichiometry N (AUC): 2
